T1: EpCAM (UniProt P16422 24-265)
T1 construct: also called biotinylated EpCAM
T1 sequence (looked up): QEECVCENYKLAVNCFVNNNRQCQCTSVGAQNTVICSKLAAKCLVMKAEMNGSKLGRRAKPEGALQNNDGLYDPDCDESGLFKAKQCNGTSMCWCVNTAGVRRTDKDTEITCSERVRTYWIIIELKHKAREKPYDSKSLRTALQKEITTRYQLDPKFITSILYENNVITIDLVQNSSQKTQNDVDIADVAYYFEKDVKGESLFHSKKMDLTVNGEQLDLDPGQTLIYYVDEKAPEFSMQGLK


Assays:
EpCAM = biological target: T1, EpCAM; assay: Octet BLI; biotinylated EpCAM on streptavidin sensor;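 further: octet RED96 kinetics: 300 s association, then 300 s dissociation in 1x Kinetic buffer, buffer-blank referenced, Savitzky-Golay smoothed, fitted to a 1:1 Langmuir binding model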
Protocol: (§1) Kinetic measurements were performed using the Octet RED96 platform (ForteBIo). […] Association was followed for 300 seconds followed by dissociation in 1x Kinetic buffer for 300 seconds. Sensor tips were regenerated using 10 mM glycine, pH 1.7. Data generated were referenced by subtracting a parallel buffer blank, the baseline was aligned with the γ-axis, inter-step correlation by alignment against dissociation was performed and the data were smoothed by a Savitzky-Golay filter in the data analysis software (v.9.0.0.14). The processed data were fitted using a 1:1 Langmuir binding model with X2 as a measurement of fitting accuracy.
(§2) Binding affinities of all the variants were determined using Octet (Pall ForteBio).

CD40 = biological target: T2, CD40 (UniProt P25942 21-193); assay: Octet BLI; biotinylated CD40 on streptavidin sensor;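 further: octet RED96 biolayer interferometry, 300 s association then 300 s dissociation in kinetic buffer, buffer-blank referenced, fitted with a 1:1 Langmuir binding model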
T2 construct: also called biotinylated CD40; CD40 antigen
T2 sequence (P25942 21-193 limits assumed): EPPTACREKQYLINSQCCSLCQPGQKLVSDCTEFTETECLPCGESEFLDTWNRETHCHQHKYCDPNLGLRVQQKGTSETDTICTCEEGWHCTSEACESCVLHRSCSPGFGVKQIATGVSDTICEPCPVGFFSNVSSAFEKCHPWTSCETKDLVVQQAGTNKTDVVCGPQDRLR
Protocol: as §1, §2

Row | Binder | Kd (EpCAM) [nM] | koff (EpCAM) [s⁻¹] | kon (EpCAM) [M⁻¹ s⁻¹] | Kd (CD40) [nM] | koff (CD40) [s⁻¹] | kon (CD40) [M⁻¹ s⁻¹]
1 | AM_4110-4126 (bispecific antibody, AC_05293 backbone; also called double mutant I126G + Y180I; copies: 2 + 2 + 2) heavy 1: not shown light: DIQMTQSPSSLSASVGDRVTITCRASQSISSYLNWYQEKPGKAPKLLIYAASSLQSGVPSRFSGSGSGTDFTLTISSLQPEDFATYYCQQYGRNPPTFGQGTKLEIKRTVAAPSVFIFPPSDEQLKSGTASVVCYLNNFYPREAKVQWKVDNALQSGNSQESVTEQDSKDSTYSLWSTLTLSKADYEKHKVYACEVTHQGLSSPVTKSFNRGEC heavy 2: EVQLLEQSGAELVRPGTSVKISCKASGYAFTNYWLGWVKERPGHGLEWIGDIFPGSGNIHYNEKFKGKATLTADKSSSTAYMQLSSLTFEDSAVYFCARLRNWDEPMDYWGQGTTVTVSSASTKGPSVFPLAPSSKSTSGGTAALGCLVKDYFPEPVTVSWNSGALTSGVHTFPAVLQSSGLISLSSVVEVPSSSLGTQTYICNVNHKPSNTKVDKKVEPKSC | 5.1 | 0.0009 | 170000 | 1.5 | 0.00051 | 350000
2 | AM_4117-4134 (bispecific antibody, AC_05293 backbone; also called double mutant T109P + V188G; copies: 2 + 2 + 2) heavy 1: not shown light: DIQMTQSPSSLSASVGDRVTITCRASQSISSYLNWYQEKPGKAPKLLIYAASSLQSGVPSRFSGSGSGTDFTLTISSLQPEDFATYYCQQYGRNPPTFGQGTKLEIKRTVAAPSVFIFPPSDEQLKSGTASVVCYLNNFYPREAKVQWKVDNALQSGNSQESVTEQDSKDSTYSLWSTLTLSKADYEKHKVYACEVTHQGLSSPVTKSFNRGEC heavy 2: EVQLLEQSGAELVRPGTSVKISCKASGYAFTNYWLGWVKERPGHGLEWIGDIFPGSGNIHYNEKFKGKATLTADKSSSTAYMQLSSLTFEDSAVYFCARLRNWDEPMDYWGQGTTVTVSSASTKGPSVFPLAPSSKSTSGGTAALGCLVKDYFPEPVTVSWNSGALTSGVHTFPAVLQSSGLYSLSSVVEGPSSSLGTQTYICNVNHKPSNTKVDKKVEPKSC | 5.2 | 0.0012 | 230000 | 0.97 | 0.00072 | 740000
3 | AM_4110-4133 (bispecific antibody, AC_05293 backbone; also called double mutant I126G + S183T; copies: 2 + 2 + 2) heavy 1: not shown light: DIQMTQSPSSLSASVGDRVTITCRASQSISSYLNWYQEKPGKAPKLLIYAASSLQSGVPSRFSGSGSGTDFTLTISSLQPEDFATYYCQQYGRNPPTFGQGTKLEIKRTVAAPSVFIFPPSDEQLKSGTASVVCYLNNFYPREAKVQWKVDNALQSGNSQESVTEQDSKDSTYSLWSTLTLSKADYEKHKVYACEVTHQGLSSPVTKSFNRGEC heavy 2: EVQLLEQSGAELVRPGTSVKISCKASGYAFTNYWLGWVKERPGHGLEWIGDIFPGSGNIHYNEKFKGKATLTADKSSSTAYMQLSSLTFEDSAVYFCARLRNWDEPMDYWGQGTTVTVSSASTKGPSVFPLAPSSKSTSGGTAALGCLVKDYFPEPVTVSWNSGALTSGVHTFPAVLQSSGLYSLTSVVEVPSSSLGTQTYICNVNHKPSNTKVDKKVEPKSC | 4.9 | 0.00096 | 190000 | 1.1 | 0.00075 | 680000
4 | AM_4110-4131 (bispecific antibody, AC_05293 backbone; also called double mutant I126G + Y180W; copies: 2 + 2 + 2) heavy 1: not shown light: DIQMTQSPSSLSASVGDRVTITCRASQSISSYLNWYQEKPGKAPKLLIYAASSLQSGVPSRFSGSGSGTDFTLTISSLQPEDFATYYCQQYGRNPPTFGQGTKLEIKRTVAAPSVFIFPPSDEQLKSGTASVVCYLNNFYPREAKVQWKVDNALQSGNSQESVTEQDSKDSTYSLWSTLTLSKADYEKHKVYACEVTHQGLSSPVTKSFNRGEC heavy 2: EVQLLEQSGAELVRPGTSVKISCKASGYAFTNYWLGWVKERPGHGLEWIGDIFPGSGNIHYNEKFKGKATLTADKSSSTAYMQLSSLTFEDSAVYFCARLRNWDEPMDYWGQGTTVTVSSASTKGPSVFPLAPSSKSTSGGTAALGCLVKDYFPEPVTVSWNSGALTSGVHTFPAVLQSSGLWSLSSVVEVPSSSLGTQTYICNVNHKPSNTKVDKKVEPKSC | 4.7 | 0.00095 | 200000 | 1.2 | 0.00056 | 450000
5 | AM_4117-4126 (bispecific antibody, AC_05293 backbone; also called double mutant T109P + Y180I; copies: 2 + 2 + 2) heavy 1: not shown light: DIQMTQSPSSLSASVGDRVTITCRASQSISSYLNWYQEKPGKAPKLLIYAASSLQSGVPSRFSGSGSGTDFTLTISSLQPEDFATYYCQQYGRNPPTFGQGTKLEIKRTVAAPSVFIFPPSDEQLKSGTASVVCYLNNFYPREAKVQWKVDNALQSGNSQESVTEQDSKDSTYSLWSTLTLSKADYEKHKVYACEVTHQGLSSPVTKSFNRGEC heavy 2: EVQLLEQSGAELVRPGTSVKISCKASGYAFTNYWLGWVKERPGHGLEWIGDIFPGSGNIHYNEKFKGKATLTADKSSSTAYMQLSSLTFEDSAVYFCARLRNWDEPMDYWGQGTTVTVSSASTKGPSVFPLAPSSKSTSGGTAALGCLVKDYFPEPVTVSWNSGALTSGVHTFPAVLQSSGLISLSSVVEVPSSSLGTQTYICNVNHKPSNTKVDKKVEPKSC | 4.6 | 0.001 | 220000 | 1.2 | 0.00048 | 400000
6 | AM_4117-4131 (bispecific antibody, AC_05293 backbone; also called double mutant T109P + Y180W; copies: 2 + 2 + 2) heavy 1: not shown light: DIQMTQSPSSLSASVGDRVTITCRASQSISSYLNWYQEKPGKAPKLLIYAASSLQSGVPSRFSGSGSGTDFTLTISSLQPEDFATYYCQQYGRNPPTFGQGTKLEIKRTVAAPSVFIFPPSDEQLKSGTASVVCYLNNFYPREAKVQWKVDNALQSGNSQESVTEQDSKDSTYSLWSTLTLSKADYEKHKVYACEVTHQGLSSPVTKSFNRGEC heavy 2: EVQLLEQSGAELVRPGTSVKISCKASGYAFTNYWLGWVKERPGHGLEWIGDIFPGSGNIHYNEKFKGKATLTADKSSSTAYMQLSSLTFEDSAVYFCARLRNWDEPMDYWGQGTTVTVSSASTKGPSVFPLAPSSKSTSGGTAALGCLVKDYFPEPVTVSWNSGALTSGVHTFPAVLQSSGLWSLSSVVEVPSSSLGTQTYICNVNHKPSNTKVDKKVEPKSC | 4.5 | 0.0012 | 260000 | 1 | 0.00066 | 630000
7 | AM_4115-4134 (bispecific antibody, AC_05293 backbone; also called double mutant I126S + V188G; copies: 2 + 2 + 2) heavy 1: not shown light: DIQMTQSPSSLSASVGDRVTITCRASQSISSYLNWYQEKPGKAPKLLIYAASSLQSGVPSRFSGSGSGTDFTLTISSLQPEDFATYYCQQYGRNPPTFGQGTKLEIKRTVAAPSVFIFPPSDEQLKSGTASVVCYLNNFYPREAKVQWKVDNALQSGNSQESVTEQDSKDSTYSLWSTLTLSKADYEKHKVYACEVTHQGLSSPVTKSFNRGEC heavy 2: EVQLLEQSGAELVRPGTSVKISCKASGYAFTNYWLGWVKERPGHGLEWIGDIFPGSGNIHYNEKFKGKATLTADKSSSTAYMQLSSLTFEDSAVYFCARLRNWDEPMDYWGQGTTVTVSSASTKGPSVFPLAPSSKSTSGGTAALGCLVKDYFPEPVTVSWNSGALTSGVHTFPAVLQSSGLYSLSSVVEGPSSSLGTQTYICNVNHKPSNTKVDKKVEPKSC | 6.9 | 0.0013 | 190000 | 1.1 | 0.001 | 930000
8 | AM_4115-4133 (bispecific antibody, AC_05293 backbone; also called double mutant I126S + S183T; copies: 2 + 2 + 2) heavy 1: not shown light: DIQMTQSPSSLSASVGDRVTITCRASQSISSYLNWYQEKPGKAPKLLIYAASSLQSGVPSRFSGSGSGTDFTLTISSLQPEDFATYYCQQYGRNPPTFGQGTKLEIKRTVAAPSVFIFPPSDEQLKSGTASVVCYLNNFYPREAKVQWKVDNALQSGNSQESVTEQDSKDSTYSLWSTLTLSKADYEKHKVYACEVTHQGLSSPVTKSFNRGEC heavy 2: EVQLLEQSGAELVRPGTSVKISCKASGYAFTNYWLGWVKERPGHGLEWIGDIFPGSGNIHYNEKFKGKATLTADKSSSTAYMQLSSLTFEDSAVYFCARLRNWDEPMDYWGQGTTVTVSSASTKGPSVFPLAPSSKSTSGGTAALGCLVKDYFPEPVTVSWNSGALTSGVHTFPAVLQSSGLYSLTSVVEVPSSSLGTQTYICNVNHKPSNTKVDKKVEPKSC | 7 | 0.0013 | 180000 | 1 | 0.0011 | 1.1e+06
9 | AM_4117-4133 (bispecific antibody, AC_05293 backbone; also called double mutant T109P + S183T; copies: 2 + 2 + 2) heavy 1: not shown light: DIQMTQSPSSLSASVGDRVTITCRASQSISSYLNWYQEKPGKAPKLLIYAASSLQSGVPSRFSGSGSGTDFTLTISSLQPEDFATYYCQQYGRNPPTFGQGTKLEIKRTVAAPSVFIFPPSDEQLKSGTASVVCYLNNFYPREAKVQWKVDNALQSGNSQESVTEQDSKDSTYSLWSTLTLSKADYEKHKVYACEVTHQGLSSPVTKSFNRGEC heavy 2: EVQLLEQSGAELVRPGTSVKISCKASGYAFTNYWLGWVKERPGHGLEWIGDIFPGSGNIHYNEKFKGKATLTADKSSSTAYMQLSSLTFEDSAVYFCARLRNWDEPMDYWGQGTTVTVSSASTKGPSVFPLAPSSKSTSGGTAALGCLVKDYFPEPVTVSWNSGALTSGVHTFPAVLQSSGLYSLTSVVEVPSSSLGTQTYICNVNHKPSNTKVDKKVEPKSC | 4.6 | 0.0012 | 260000 | 0.93 | 0.0007 | 750000
10 | AM_4110-4134 (bispecific antibody, AC_05293 backbone; also called double mutant I126G + V188G; copies: 2 + 2 + 2) heavy 1: not shown light: DIQMTQSPSSLSASVGDRVTITCRASQSISSYLNWYQEKPGKAPKLLIYAASSLQSGVPSRFSGSGSGTDFTLTISSLQPEDFATYYCQQYGRNPPTFGQGTKLEIKRTVAAPSVFIFPPSDEQLKSGTASVVCYLNNFYPREAKVQWKVDNALQSGNSQESVTEQDSKDSTYSLWSTLTLSKADYEKHKVYACEVTHQGLSSPVTKSFNRGEC heavy 2: EVQLLEQSGAELVRPGTSVKISCKASGYAFTNYWLGWVKERPGHGLEWIGDIFPGSGNIHYNEKFKGKATLTADKSSSTAYMQLSSLTFEDSAVYFCARLRNWDEPMDYWGQGTTVTVSSASTKGPSVFPLAPSSKSTSGGTAALGCLVKDYFPEPVTVSWNSGALTSGVHTFPAVLQSSGLYSLSSVVEGPSSSLGTQTYICNVNHKPSNTKVDKKVEPKSC | 5.3 | 0.0011 | 200000 | 0.88 | 0.00075 | 860000
